B1: LEAI.474 (other)
chain: SPVDICTAKPRDIPMNPMCIYRSPEKKATEDEGSEQKIPEATNRRVWELSKANSRFATTFYQHLADSKNDNDNIFLSPLSISTAFAMTKLGACNDTLQQLMEVFKFDTISEKTSDQIHFFFAKLNCRLYRKANKASKLVSANRLFGDKSLTFNETYQDISELVYGAKLQPLDFKENAEQSRAAINKWVSNKTEGRITDVIPSEAINELTVLVLVNTIYFKGLWKSKFSPENTRKELFYKADGESCSASMMYQEGKFRYRRVAEGTQVLELPFKGDDITMVLILPKPEKSLAKVEKELTPEVLQEWLDELEEMMLVVHMPRFRIEDGFSLKEQLQDMGLVDLFSPEKSKLPGIVAEGRDDLYVSDAFHKAFLEVNEEGSEAAASTALEAQGRSLNPNRVTFKANRPFLVFIREVPLNTIIFMGRVANPCVK
notes: also called DES.LEAI.474
B2: LEAI.482 (other)
chain: SPVDICTAKPRDIPMNPMCIYRSPEKKATEDEGSEQKIPEATNRRVWELSKANSRFATTFYQHLADSKNDNDNIFLSPLSISTAFAMTKLGACNDTLQQLMEVFKFDTISEKTSDQIHFFFAKLNCRLYRKANKASKLVSANRLFGDKSLTFNETYQDISELVYGAKLQPLDFKENAEQSRAAINKWVSNKTEGRITDVIPSEAINELTVLVLVNTIYFKGLWKSKFSPENTRKELFYKADGESCSASMMYQEGKFRYRRVAEGTQVLELPFKGDDITMVLILPKPEKSLAKVEKELTPEVLQEWLDELEEMMLVVHMPRFRIEDGFSLKEQLQDMGLVDLFSPEKSKLPGIVAEGRDDLYVSDAFHKAFLEVNEEGSEAAASTALEAHGRSLNPNRVTFKANRPFLVFIREVPLNTIIFMGRVANPCVK
B3: LEAI.480 (other)
chain: SPVDICTAKPRDIPMNPMCIYRSPEKKATEDEGSEQKIPEATNRRVWELSKANSRFATTFYQHLADSKNDNDNIFLSPLSISTAFAMTKLGACNDTLQQLMEVFKFDTISEKTSDQIHFFFAKLNCRLYRKANKASKLVSANRLFGDKSLTFNETYQDISELVYGAKLQPLDFKENAEQSRAAINKWVSNKTEGRITDVIPSEAINELTVLVLVNTIYFKGLWKSKFSPENTRKELFYKADGESCSASMMYQEGKFRYRRVAEGTQVLELPFKGDDITMVLILPKPEKSLAKVEKELTPEVLQEWLDELEEMMLVVHMPRFRIEDGFSLKEQLQDMGLVDLFSPEKSKLPGIVAEGRDDLYVSDAFHKAFLEVNEEGSEAAASTALEAYGRSLNPNRVTFKANRPFLVFIREVPLNTIIFMGRVANPCVK

Key:
factor Xa [1] = target: T1, factor Xa (human, UniProt P00742 41-179; P00742 235-488, limits assumed); test: Kapp fXa/prog relative to plasma.at3
T1 construct: also called fXa; human factor Xa

factor Xa [2] = target: T1, factor Xa; test: factor Xa +hep: pseudo-first-order loss of chromogenic activity with heparin
Experimental: (§1) Polybrene was added with the chromogenic substrate to quench the heparin dependent reaction. The observed pseudo-first-order rate constants were calculated for each heparin (1 nM-5 nM) concentration from the slope of the log of residual proteinase activity vs. time. This was plotted against the heparin concentration to calculate the second-order rate constant for the inhibition by the heparin-ATIII complex, (Kₕₑₚ) from the equation Kobs=Kₕₑₚ[H]ₒ([AT]ₒ/[AT]ₒ+Kd)+Kuncat[AT]ₒ

factor Xa [3] = target: T1, factor Xa; test: factor Xa prog: pseudo-first-order loss of chromogenic activity, no heparin, 25 C
Experimental: (§2) Polybrene was added with the chromogenic substrate to quench the heparin dependent reaction. […] This was plotted against the heparin concentration to calculate the second-order rate constant for the inhibition by the heparin-ATIII complex, (Kₕₑₚ) from the equation Kobs=Kₕₑₚ[H]ₒ([AT]ₒ/[AT]ₒ+Kd)+Kuncat[AT]ₒ

thrombin [4] = target: T2, thrombin (human, UniProt P00734 328-622); test: Kapp IIa/prog relative to plasma.at3
thrombin [5] = target: T2, thrombin; test: thrombin prog: pseudo-first-order loss of chromogenic activity, no heparin, 25 C
Experimental: as §2

factor Xa [6] = target: T1, factor Xa; test: Kapp fXa/hep relative to plasma.at3
thrombin [7] = target: T2, thrombin; test: thrombin +hep: pseudo-first-order loss of chromogenic activity with heparin
Experimental: as §1

thrombin [8] = target: T2, thrombin; test: cell-based or functional assay
factor Xa [9] = target: T1, factor Xa; test: cell-based or functional assay
thrombin [10] = target: T2, thrombin; test: Kapp IIa/hep relative to plasma.at3

T1 sequence (P00742 41-179 limits assumed, chain 1 of 2): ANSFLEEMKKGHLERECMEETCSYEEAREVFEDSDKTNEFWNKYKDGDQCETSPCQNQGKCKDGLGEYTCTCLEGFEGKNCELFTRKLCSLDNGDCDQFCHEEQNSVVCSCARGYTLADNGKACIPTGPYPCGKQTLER
T1 sequence (P00742 235-488 limits assumed, chain 2 of 2): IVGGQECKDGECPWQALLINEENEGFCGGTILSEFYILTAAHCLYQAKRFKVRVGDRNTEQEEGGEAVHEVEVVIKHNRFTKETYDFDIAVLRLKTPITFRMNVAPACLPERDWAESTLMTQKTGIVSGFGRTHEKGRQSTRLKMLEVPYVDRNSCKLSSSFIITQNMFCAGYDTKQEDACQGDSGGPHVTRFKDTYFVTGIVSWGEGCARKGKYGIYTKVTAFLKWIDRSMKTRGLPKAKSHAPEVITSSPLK

| Binder | Kapp as a percentage of the plasma ATIII value (factor Xa [1]) [%] | kapp (apparent second-order inhibition rate constant) (factor Xa [2]) [M⁻¹ s⁻¹] | kapp (apparent second-order inhibition rate constant) (factor Xa [3]) [M⁻¹ s⁻¹] | Kapp as a percentage of the plasma ATIII value (thrombin [4]) [%] | kapp (apparent second-order inhibition rate constant) (thrombin [5]) [M⁻¹ s⁻¹] | Kapp as a percentage of the plasma ATIII value (factor Xa [6]) [%] | kapp (apparent second-order inhibition rate constant) (thrombin [7]) [M⁻¹ s⁻¹] | IC50 IIa/UFH; HCA #2 (thrombin [8]) [nM] | IC50 IIa/UFH; HCA #3 (thrombin [8]) [nM] | IC50 IIa/UFH; HCA #4 (thrombin [8]) [nM] | rsd. IIa catG; CA #12; stg1 conc 200 (thrombin [8]) [%] | rsd. IIa catG; CA #14; stg1 conc 200 (thrombin [8]) [%] | rsd. IIa catG; CA #15; stg1 conc 200 (thrombin [8]) [%] | rsd. IIa hne; CA #14; stg1 conc 200 (thrombin [8]) [%] | rsd. IIa no add; CA #14; stg1 conc 200 (thrombin [8]) [%] | IC50 fXa/UFH; HCA #4 (factor Xa [9]) [nM] | rsd. Xa catG; CA #14; stg1 conc 200 (factor Xa [9]) [%] | rsd. Xa hne; CA #14; stg1 conc 200 (factor Xa [9]) [%] | rsd. Xa no add; CA #14; stg1 conc 200 (factor Xa [9]) [%] | Kapp as a percentage of the plasma ATIII value (thrombin [10]) [%] | further results |
| --- | --- | --- | --- | --- | --- | --- | --- | --- | --- | --- | --- | --- | --- | --- | --- | --- | --- | --- | --- | --- | --- |
| B1 | 510 | 1.25e+06 | 10700 | 38 | 2680 | 217 | 2.01e+06 | 65 | 47 | 50 | 1 | 1 | 1 | 2 | 2 | 13 | 1 | 1 | 2 | 34 | rsd. IIa hne; CA #15; stg1 conc 200 (thrombin [8]): 6%; rsd. IIa no add; CA #15; stg1 conc 200 (thrombin [8]): 0%; IC50 fXa/UFH; HCA #2 (factor Xa [9]): 20 nM; IC50 fXa/UFH; HCA #3 (factor Xa [9]): 16 nM; rsd. Xa catG; CA #12; stg1 conc 200 (factor Xa [9]): 1%; rsd. Xa catG; CA #15; stg1 conc 200 (factor Xa [9]): 0%; rsd. Xa hne; CA #15; stg1 conc 200 (factor Xa [9]): 1%; rsd. Xa no add; CA #15; stg1 conc 200 (factor Xa [9]): 0% |
| B2 | 256 | 831000 | 5360 | 41 | 2920 | 145 | 5.37e+06 |  |  | 25 |  | 1 |  | 4 | 1 | 22 | 1 | 2 | 0 | 91 |  |
| B3 | 1150 | 489000 | 24100 | 104 | 7310 | 85 | 2.11e+06 | 75 | 43 | 55 | 1 | 1 | 1 | 3 | 7 | 40 | 2 | 4 | 2 | 36 | rsd. IIa hne; CA #12; stg1 conc 200 (thrombin [8]): 2%; rsd. IIa hne; CA #15; stg1 conc 200 (thrombin [8]): 4%; rsd. IIa no add; CA #12; stg1 conc 200 (thrombin [8]): 1%; rsd. IIa no add; CA #15; stg1 conc 200 (thrombin [8]): -1%; IC50 fXa/UFH; HCA #2 (factor Xa [9]): 65 nM; IC50 fXa/UFH; HCA #3 (factor Xa [9]): 46 nM; rsd. Xa catG; CA #12; stg1 conc 200 (factor Xa [9]): 1%; rsd. Xa catG; CA #15; stg1 conc 200 (factor Xa [9]): 0%; rsd. Xa hne; CA #12; stg1 conc 200 (factor Xa [9]): 1%; rsd. Xa hne; CA #15; stg1 conc 200 (factor Xa [9]): 1%; rsd. Xa no add; CA #12; stg1 conc 200 (factor Xa [9]): 1%; rsd. Xa no add; CA #15; stg1 conc 200 (factor Xa [9]): 1% |

— patent US20060259987A1 (UNIVERSITY OF UTAH RESEARCH FOUNDATION, published 2006)
